From EP4644419A1 (Hangzhou Zhongmeihuadong Pharmaceutical Co., Ltd., dated 2025)

T1: human CD112R antigen protein huCD112R-His (Acro Biosysterm, PVG-H52H4) (human, UniProt Q6DKI7 41-171)
T1 construct: purchased; also called human antigen protein; not shown: His tag
T1 sequence (looked up): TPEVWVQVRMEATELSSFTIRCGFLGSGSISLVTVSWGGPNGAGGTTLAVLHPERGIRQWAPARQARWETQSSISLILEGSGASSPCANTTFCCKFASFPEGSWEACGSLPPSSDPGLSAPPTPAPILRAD

T2: monkey antigen protein (monkey CD112R, Uniprot ID: A0A2K5WVV8) (monkey, UniProt A0A2K5WVV8 41-171)
T2 sequence: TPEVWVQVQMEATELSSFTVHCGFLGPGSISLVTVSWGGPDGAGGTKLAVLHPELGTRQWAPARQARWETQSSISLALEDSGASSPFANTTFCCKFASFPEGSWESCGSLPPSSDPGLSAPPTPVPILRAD


Columns and labels:
[1] = target: T1, human CD112R antigen protein …; experiment: ELISA, huCD112R-His coated on plate
[2] = target: T2, monkey antigen protein (monkey CD112R, …); experiment: ELISA, monkey antigen protein (as Example 6.1)
[3] = target: T1, human CD112R antigen protein …; experiment: SPR (Biacore X100), antibody captured on Protein A chip, huCD112R-His as analyte, 1:1 Langmuir

Binder	EC50 [1] [nM]	EC50 [2] [nM]	Kd [3] [nM]
C21 (antibody, human IgG1, kappa, V domains shown) VH: EVQLQQSGAELVKPGASVKLSCTASGFNIKDIYMHWLKQRPEQGLEWIGRVDPTNGNSEYDPRFQGKATLTADTSSNIAYLQLSSLTSEDTAVYYCARFGIYPYFDYWGQGTTLTVSS VL: SIVMTQTPKFLLVSAGDRVTITCKASQSVNKAVVWYQQKPGQSPKLLINYASNRYTGVPDRFTGSGYGTDFTFSISTVQAEDLAVYFCQQDYSSPWTFGGGTKLEIKR	0.066	0.068	–
C120 (antibody, human IgG1, kappa, V domains shown) VH: EVQLQQSGPEVVKPGASVKISCKASGNTLTDYFINWVKQSHGKNLEWIGDINPDNGAGNYNQKFKGKATLTVDKSSGTAFMGLRSLTSEDSAVYYCATLYFDYWGQGTTLTVSS VL: DIVMTQSPSSLSVSTGEKVTMSCRSSQSLLNSGNQKNYLAWYQQKPGQPPKLLIYGASTRESGVPDRFTGSGSGTDFTLTISSVQAEDLAIYYCQNAHTSPYTFGGGTRLEIKR	0.035	0.062	0.0769
C145 (antibody, human IgG1, kappa, V domains shown) VH: EVQLQQSGPEVVKPGASVRISCKASGNTFTDFFINWVKQSHGKSLEWIGDVNPDSNGANYNQKFKGKATLTVDKSSGTAFMGLRSLTSEDSAVYYCATLFFDNWGQGTTLTVSS VL: DIVMTQSPSSLNVSAGEKVTMSCKSSQSLLNSGNQKNYLAWYQQKPGQPPKLLIYGASTRESGVPDRFTGSGSGTDFILTISSVQAEDLALYYCQNAHSSPYTFGGGTKLEIKR	0.038	0.042	–
C56-2 (antibody, human IgG1, kappa, V domains shown) VH: EVQLVESGGGLVKPGGSLKLSCAASGFTFSDYALSWVRQTPEKRLEWVATIRDGGSYTYYSDNEKGRFTISRDNAKNNLYLQMSHLRSEDTAMYYCTRDQVNRGWFTYWGQGTLVTVSA VL: QVILTQSPAIMSASLGERVTMTCSASSSVSSSYFHWFQQKPGSSPKLWIYSTSNLASGVPPRFSGSGSGTSYSLTISSMEAEDAATYYCHQHHRSPLTFGAGTKLELKR	0.032	0.044	–
C59 (antibody, human IgG1, kappa, V domains shown) VH: EVQLVESGGGLVKPGGSLKLSCAASGFTFSGYALSWVRQTPEKRLEWVATIRDGGSYTYYSDNEKGRFTISRDNAKNNLYLQMSHLKSEDTAMYYCTRDQVNRGWFTYWGQGTLVTVSA VL: QVILTQSPAIMSASLGERVTMTCSASSSVSSSYFHWFQQKPGSSPKLWIYSTSNLASGVPPRFSGSGSGTSYSLTISSMEAEDAATYYCHQHHRSPLTFGAGTKLELKR	0.044	0.049	–
C23 (antibody, human IgG1, kappa, V domains shown) VH: QVQLQQSGPELVKPGTSVKISCKASGYTFTDYYINWVKQRPGQGLEWIGWIFPGSGNTYYNEKFKGRATLTVDKSSSTAYMLLSSLTSEDSAVYFCARDGGLRGPFDYWGQGTTLTVSS VL: DIQMTQSPSSLSASLGGKVTITCKASQDINKYIAWFQHKPGKGPRLLIHFTSTLQSGIPSRFSGSGSGGDYSFSISNLEPEDIATYYCLQYDYLYTFGGGTTLEIKR	0.06	0.125	–
C22 (antibody, human IgG1, kappa, V domains shown) VH: EVQLQQSGPEPVKPGASVKISCKASGYTFTDYNIHWVRQSHGKSLEWIGYIYPYNGGAGYNQKFKSKATLTVDSSSSTAYMELRSLTSEDSAVYYCAREELRRDYGMDYWGQGTSVTVSS VL: DIQMTQSPASLSASVGETVTITCRASENIYSYLAWYQQKQGKSPQLLVYNAKTLAEGVPSRFSGSGSGTQFSLKINSLQPEDFGSYYCQHHYGTPYTFGGGTKLETKR	0.029	0.125	–
C125 (antibody, human IgG1, kappa, V domains shown) VH: EVKLVESGGGLVQPGGSLKLSCAASGFTFSSYTMSWVRQTPEKRLELVAELSNSGGSFHYPDNVKGRFTISRDNAKNTLYLQMSSLKSEDTAMYYCARHNWDVYAMDYWGQGTSVTVSS VL: DIQMSQSPASLSASVGETVTITCRASENVNSYLAWYQQKQGRSPQFLVYNAQTLAEGVPSRFSGGGSGTQFSLKINSLQPEDFGSYYCQHHYGNPTFGGGTKLEIKR	0.049	0.079	–
C39 (antibody, human IgG1, kappa, V domains shown) VH: QAYLQQSGAELVRPGASVKMSCKASGYTFTSYNIHWVKQTPRQGLEWIGAIYPGNADISYNQKFRDKATLTVDKSSSTAYMQLSSLTSEDSAVYFCAKPLRIYAMDCWGQGTSVTVSS VL: DIVMTQSQKFMSTSVGDRVSVTCKASQNVGTNVAWYQQKPGQSPKALIYSASYRYSGVPDRFTGSGSGTDFTLTISNVQSEDLADYFCQQYNSRPLTFGGGTKLEIKR	0.691	0.141	–
C28 (antibody, human IgG1, kappa, V domains shown) VH: QIQLQQSGPELVKPGPSVKISCKASGYTFTDYYINWVKQRPGQGLEWIGWIYPGSGYTKYNEKLKGRATLTVDTSSSTAYMQLSSLTSEDSAVYFCARDSFYAMDYWGQGTSVTVSS VL: DIVMTQSQKFMSTTVGDRVSITCKASQNVGTAVAWYQQKPGQSPKLLIYSASNRYTGVPDRFTGSGSGTDFTLTITNMQSEDLADYFCLQYSSYLTFGAGTKLELKR	0.049	0.054	–
C31 (antibody, human IgG1, kappa, V domains shown) VH: QIQLQQSGPELVKPGASVKISCKASGYTFTDYYIAWVKQRPGQGLEWIGWIYLGSGHTMYNENFKGKATLTVDTSSSTAYMQLSSLTSEDSAVYFCARDSFYAMDYWGQGTSVTVSS VL: DIVMTQSQKFMSTTVGDRVSITCKASQNVGTAVAWYQQKPGQSPKLLIYSASNRYTGVPDRFTGSGSGTDFTLTISNMQSEDLADYFCQQYSTYLTFGAGTKLELKR	0.038	0.12	–
C101 (antibody, human IgG1, kappa, V domains shown) VH: EVQLQQSGPELVKPGSSVKISCEASGFTFADYNVDWVKQSHGKSLEWIGAINPNDGGTSYNQKFEGKATLTVDKSSTTAYMELRSLTSEDSAVYYCARWVNNDWYFDVWGTGTTVTVSS VL: DIVMTQSQKFMSTSVGDRVSITCKASQNVRSAVDWYQQKPGQSPKTLIHSASNRHTGVPDRFTGSGSGTDFTLTISNIQSEDLADYFCLQHWNYPYTFGGGTKLEVKR	0.043	0.085	0.0392
C113 (antibody, human IgG1, kappa, V domains shown) VH: EVQLQQSGPELVKPGSSVKISCKASGYTFTDYNLDWMKQSHGSSLEWIGAMSPNNGATSYNQKFKGKATLTVDKSSSTAYMELRSLTSEDSAVYYCARWDSNSWYFDVWGTGTTVTVSS VL: DIVMTQSQKFMSTSVGDRVSITCKASQIVRTAVDWYQQKSGQSPKALIYSASTRHTGVPDRFTGSGSGTDFTLTIDNVQSEDLAEYFCLQHWNYPYTFGGGTKLEIKR	0.038	0.104	–
C105 (antibody, human IgG1, kappa, V domains shown) VH: EVQLQQSGPELVKPGSSMKISCKASGYTFTDYSMDWVKQSHGKSLEWIGAINPNNGGTSYNQKFKDKATLTVDRSSSTAYMELRSLTSEDSAVYYCARWDSDYWYFDVWATGTTVTVSS VL: DIVMTQSQKFMSTSVGDRVSITCKASQNVRTAVDWYQQKPGQSPKALIYSASNRHTGVPDRFTGSGSGTDFTLTISNVQSEDLADYFCLQHWNYPYTFGGGTKLEIKR	0.021	0.065	0.716
C111 (antibody, human IgG1, kappa, V domains shown) VH: QVQLQQSGPELARPGASVKLSCKASGYTLTSHGISWVKQRTGQGLEWIGEIYPGSESPYYSEKFKGKATLTADKSSNIAYMQLSSLTSEDSAVYFCARSDYSDYWAMDYWGQGTSVTVSS VL: DIVMTQSQKCMSTSVGDRVSITCKASQNVRSAVAWYQQKPGQSPKTLIYLASNRHTGVPDRFTGSGSGTDFTLTITNVQSEDLADYFCLQHWNYPWTFGGGTELEIKR	0.036	0.074	–
C146 (antibody, human IgG1, kappa, V domains shown) VH: EVQLQQSGPELVKPGSSVKISCEASGYTFADYNVDWVKQSHGKSLEWIGAINPNDGGTSYNQKFEGKATLTVDKSSTTVYMELRSLTSEDSAVYYCARWVNNDWYFDVWGTGTTVTVSS VL: DIVMTQSQKFMSTSVGDRVSITCKASQNVRSAVDWYQQKPGQSPKTLIHSASSRHTGVPDRFTGSGSGTDFTLTISNIQSEDLADYFCLQHWNYPYTFGGGTKLEVKR	0.036	0.074	–
C136 (antibody, human IgG1, kappa, V domains shown) VH: DVQLVESGGGLVKPGGSLKLSCAASGFSFSENYMYWVRQTPEKRLEWVATISDGASYTYYPDNVKGRFTISRDTAKNNLYLQMSHLKSEDTAMYYCTRDELIAPFAYWGQGTLVTVSA VL: DIVMTQSHKFMSTSVGDRVSITCKASQDVGTAVAWFQQKPGQSPKLLIYWASTRHTGVPDRFTGSGSGTDFTLTISNVQSEDLADYFCQQYNSYPWTFGGGTKLEIKR	0.039	0.06	–
C36 (antibody, human IgG1, kappa, V domains shown) VH: QIQLVQSGPELKKPGETVKISCKASGYTFTTYGMSWVKQAPGKGLKWMGWINTYSGVPTYADDFKGRFAFSLETSASNAYLQINNLKNEDTATYFCARELPFTTIIGTKDYWGQGTTLTVSS VL: DIVLIQSPATLSVTPGDSVSLSCRASQFISNNLHWYQQKSHESPRLLIKYASQSISGIPSRFSGGGSGTDFTLTVNSVETEDFGMYFCQQSNSWPHTFGGGTKLEIKR	0.219	0.101	–
C115 (antibody, human IgG1, kappa, V domains shown) VH: EVQLQQSGAELVKPGASVKLSCTASGFNIEDTYIHWVKRRPEQGLEWIGGIDPAIGNTLYASKFQDMATITADTSSSTAYMQLSSLTSGDTAVYYCARERVYSNTLYYAMDYWGQGTSVTVSS VL: DIVLTQSPASLVVSLGQRATISCRASKSVSISGYSYMHWYQQKPGQPPKLLIYLASNLESGVPARFSGSGSGTDFTLNIHPVEAEDAATYYCQHSRELPPTFGGGTNLEIKR	0.029	0.034	0.222
